Substrate: NC(=O)C[C@H](N)C(=O)O
Experiment: purified protein
Type: biochemical, Thermococcus sibiricus
Conditions: native unconjugated enzyme, 25 mM borate buffer, pH 8.5 (Table 4; Figure 5 legend says pH 7.5, Methods pH 9.3), 85 °C

B1: TsA (L-asparaginase from Thermococcus sibiricus) (Thermococcus sibiricus MM 739) (protein)
chain: MKKLLIIGTGGTIASAKTEQGYKSVLKIDEILKLAKIKLENGYKIDSTNIMNIDSTLIHPEDWEIIAKEVFKALDDYDGIIITHGTDTLAYTASMLSFMIKNPNKPIVLTGSMLPITENGSDAPRNIRTAIKFAMEDVAGVFVAFMDKIMLGCRTSKVRTLGLNAFMSINYPDVAYVKGEKILYNIPKEKFQPNGSPELDTKYEPRVVVLRVTPGLGGEIIDAVLDAGYKGIVLEGYGAGGLPYRKSNLLSKIKEITPKIPVIMTTQALYDGVDMRKYEVGRKALETGIIPAKDMTKEATITKLMWALGHTKDVEKIREIMHTNYVNEIKS
notes: synthetic gene in pET-28a(+), E. coli BL21(DE3), SP-Sepharose purified (no tag mentioned); gene span 996 nt
  Km: 6.1 ± 1.3 mM
  Vmax: 470 µmol/min/mg
